From PMC6373949, “Expression optimization, purification, and functional characterization of cholesterol oxidase from Chromobacterium sp. DS1” (PLoS ONE, 2019)

Substrate: CC(C)CCC[C@@H](C)[C@H]1CC[C@H]2[C@@H]3CC=C4C[C@@H](O)CC[C@]4(C)[C@H]3CC[C@]12C
Test: purified protein
Format: biochemical, Chromobacterium sp. DS-1
Conditions: 0.1 M potassium phosphate pH 7, 25°C, cholesterol 0-1 mM

B1: cholesterol oxidase from Chromobacterium sp. DS1 (ChO) (Chromobacterium sp. DS-1) (protein)
chain: GRLTCSQPNNFPAEIPLYKQSFKNWAGDIKVDDVWTCAPRSADEVVKVANWAKDNGYKVRARGMMHNWSPLTLAAGVSCPAVVLLDTTRYLTAMSIDASGPVAKVTAQAGITMEALLTGLEKAGLGVTAAPAPGDLTLGGVLAINGHGTAIPAKGERRLAGASYGSISNLVLSLTAVVYDKASGAYALRKFARNDPQIAPLLAHVGRSLIVEATLQAAPNQRLRCQSWFNIPYGEMFAAAGSGGRTFASYLDSAGRVEAIWFPFTSNPWLKVWTVTPNKPLFSRQTDKPFNYPFSDNLPDEVTDLANKILSLGDGKLTPAFGKAQFAAASAGLVATASWDLWGWSKNLLLYVKPTTLRVTANGYAVLTRRENVQRVLNEFVTFYQARVQAYQQQGRYPMNGPVEIRVTGLDDPSEAALSGGVAPALSAIRPRPDHPEWNVAVWLDILTLPGTPYANQFYREIEQWIEANFNGSYAAVRPEWSKGWGYTDQAAWADSAMLQTTIPNAFRAGQPAAANWDAAKAALAAYDPYRLFSSPLLDSLGL
notes: synthetic gene in pET24b(+) NdeI-BamHI; 6xHis tag (N-terminal), no tag removal told; E. coli Rosetta-gami2(DE3); native enzyme 58 kDa
Work on B1 yielded a Km of 31 µM.
